Laboratory results as given in PMC8188256 (Data in Brief, 2021).
pKd: −log10 of the molar value. Several values for one entry are separate records, joined by “and”; a condition that tells them apart may be missing. Equal entries are not always repeated. Each block holds one molecule with its values, some of them ahead of it.

Key:
DnaK = DnaK (Escherichia coli, UniProt P0A6Y8); experiment: biochemical
DnaKLS (E. coli) = DnaKLS (E. coli) (UniProt P0A6Y8); experiment: SPR
[1] = target: PfHsp70–1LS (Plasmodium falciparum); experiment: SPR
[2] = target: PfHsp70-zLS (Plasmodium falciparum); experiment: SPR
[3] = target: PfHsp70–1 (Plasmodium falciparum); experiment: SPR
[4] = target: Plasmodium falciparum Hsp110 (PfHsp70-z) (Plasmodium falciparum); experiment: SPR

Sequence of DnaJ (P08622 whole entry): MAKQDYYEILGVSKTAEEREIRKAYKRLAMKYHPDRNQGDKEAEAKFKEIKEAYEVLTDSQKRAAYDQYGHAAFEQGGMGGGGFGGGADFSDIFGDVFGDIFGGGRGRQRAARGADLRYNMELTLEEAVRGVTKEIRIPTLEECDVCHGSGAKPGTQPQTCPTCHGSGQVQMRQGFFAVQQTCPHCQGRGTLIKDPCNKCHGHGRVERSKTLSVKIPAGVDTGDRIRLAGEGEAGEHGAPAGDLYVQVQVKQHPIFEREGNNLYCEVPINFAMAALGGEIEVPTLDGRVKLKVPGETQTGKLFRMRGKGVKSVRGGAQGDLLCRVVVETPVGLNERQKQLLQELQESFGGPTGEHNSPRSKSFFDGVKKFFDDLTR
Sequence of DnaK (P0A6Y8 2-638): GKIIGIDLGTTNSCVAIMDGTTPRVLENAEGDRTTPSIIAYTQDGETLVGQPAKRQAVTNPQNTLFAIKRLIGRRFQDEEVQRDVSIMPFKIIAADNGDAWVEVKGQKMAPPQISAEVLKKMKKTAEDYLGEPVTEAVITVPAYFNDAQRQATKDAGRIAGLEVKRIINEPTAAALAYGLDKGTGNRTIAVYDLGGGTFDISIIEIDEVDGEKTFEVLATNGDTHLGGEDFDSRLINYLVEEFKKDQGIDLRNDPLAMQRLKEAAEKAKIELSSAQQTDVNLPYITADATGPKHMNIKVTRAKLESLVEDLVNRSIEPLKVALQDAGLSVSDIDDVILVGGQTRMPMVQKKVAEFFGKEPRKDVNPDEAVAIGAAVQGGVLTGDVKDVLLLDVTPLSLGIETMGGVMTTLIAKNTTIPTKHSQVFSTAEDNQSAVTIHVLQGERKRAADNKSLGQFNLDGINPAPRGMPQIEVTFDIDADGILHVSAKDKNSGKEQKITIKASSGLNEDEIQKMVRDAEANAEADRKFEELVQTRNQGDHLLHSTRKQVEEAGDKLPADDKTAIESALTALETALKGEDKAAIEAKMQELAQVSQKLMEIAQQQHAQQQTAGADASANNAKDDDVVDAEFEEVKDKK

pKd (DnaK): 6.40
Molecule: Nc1ncnc2c1ncn2[C@@H]1O[C@H](COP(=O)(O)OP(=O)(O)OP(=O)(O)O)[C@@H](O)[C@H]1O [ATP]

koff (DnaKLS (E. coli)): 0.0676 s⁻¹ and 0.0732 s⁻¹ and 0.0522 s⁻¹
Molecule: DnaJ (from UniProt P08622 1-376) (natural protein)

Molecule: PfHsp40 (natural protein)
kon [1]: 6040 M⁻¹ s⁻¹ and 2200 M⁻¹ s⁻¹ and 6140 M⁻¹ s⁻¹
kon [2]: 9020 M⁻¹ s⁻¹ and 6170 M⁻¹ s⁻¹ and 7250 M⁻¹ s⁻¹
koff [3]: 0.0815 s⁻¹ and 0.0866 s⁻¹ and 0.0361 s⁻¹
koff [4]: 0.0713 s⁻¹ and 0.0396 s⁻¹ and 0.0369 s⁻¹
